The results in this text go back to paper PMC7498313, “The Sac10b homolog from Sulfolobus islandicus is an RNA chaperone”.

Values joined by “and” are separate entries in the source; they are usually repeats but may differ in a detail not shown here. Identical values can stand only once.

Data set [1] deals with N-terminally truncated Sis10b (ΔN12) (Sulfolobus islandicus REY15A). Put plainly: cross-linking; 10 μg protein cross-linked with 0.5 mM DSP, with or without 5 μg of a 25-bp dsRNA, 30 min at 25 or 55°C, 20 mM potassium phosphate pH 7.6, 50 mM KCl; 15% SDS-PAGE, Coomassie stain.
Data set [2] concerns the target Sis10b M20E/L24E/L27E/F60E (Sulfolobus islandicus REY15A). The data set is described as above.
The target of data set [3] is T1, Sis10b wild-type (Sulfolobus islandicus REY15A, UniProt F0NHH1 1-97).
T1 sequence: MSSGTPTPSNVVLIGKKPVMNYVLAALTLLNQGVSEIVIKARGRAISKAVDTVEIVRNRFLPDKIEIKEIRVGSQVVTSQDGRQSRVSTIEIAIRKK
Nature of the data set: EMSA; 55°C; EMSA: 20 mM HEPES-NaOH pH 7.0, 1 mM DTT, 100 ug/ml BSA, 6% glycerol, 30 min at 25, 37 or 55°C; gel in 0.5x TBE at the same temperature. The following applies: protein: recombinant, tags: none (NdeI/XhoI pET30a, stop codon in reverse primer), chain copies: 2. For orientation: Mobility shift assays separate free from complexed probe on a gel.

As a reminder, the stoichiometry N is a count of units in the complex or per binding partner. Consider “N-terminally truncated Sis10b (ΔN12) (domain or fragment)”, for which the stoichiometry N in data set [1] was 2 and 4.

Turning to Sis10b M20E/L24E/L27E/F60E, the stoichiometry N in data set [2] is 5 and 3.

B1: 44-bp dsRNA (dsRNA)
RNA 1: UGACUUCCGCGCGUGAGCUCGAUUCCACAUACCCUAAAUCGCUC
RNA 2: GAGCGAUUUAGGGUAUGUGGAAUCGAGCUCACGCGCGGAAGUCA
As usually defined, the Kd is the constant that tells how readily two partners part at equilibrium. With B1, the Kd in data set [3] (label: 5' 32P on top strand, blunt) is roughly 29.4 nM.

UGACUUCCGCGCGUGAGCUCGAUUCCACAUACCCUAAAUCGCUC (ssRNA) [44-nt ssRNA (t)]: the Kd in data set [3] (label: 5' 32P, single strand) is roughly 5.3 nM.
